A short description of this series: soluble on expression in E. coli; label from the status in PepcDB or PDB records.
Consider “MADSGTAGGAALAAPAPGPGSGGPGPRVYFQSPPGAAGEGPGGADDEGPVRRQGKVTVKYDRKELRKRLNLEEWILEQLTRLYDCQEEEIPELEIDVDELLDMESDDARAARVKELLVDCYKPTEAFISGLLDKIRGMQKLSTPQKK”, for which the “soluble on expression in E. coli” value was “soluble”.

For “SMSNTTIEDEDVKARKQEIIKVTEQLIEAINNGDFEAYTKICDPGLTAFEPEALGNLVEGMDFHRFYFENALSKSNKPIHTIILNPHVHLVGDDAACIAYIRLTQYMDGSGMPKTMQSEETRVWHRRDGKWQNVHFHRSGSPTV”, the “soluble on expression in E. coli” value is reported as “soluble”.

Turning to “GHHHHHHAIAENLYFQSEVSKANGTENNVEKFDAATQEATYLDEADVDAELEAMKKRLQEMEEEANRLKEVQEQSASEVPSSEEVDRRSVYVGNVDYGSTPEELQAHFKECGTINRVTILCDKFTGHPKGFAYIEFATEEGANNAVILNESLFRGRNLKVSIKRTNVPGISTTDRGRGRGFPRGIGFRGRGGLRGGFRGRGYHGFRGRGRMTPY”, the “soluble on expression in E. coli” value is “not soluble”.

On to “GPGSMIEADVIRLNMEVEAAAARNADLSREVARLREELANSGLHNMDRTLVITEGTQTDSGMLREVALDLDDILFEVSELLFRLYPASSLDLSVRRDAQSSQLNDLSQRCLREVRSLKAAWEMKLDGYNQFISNIQRSQVDYHRSLDSKECQLRRKQQECDVLVGENARLSTLCSELESQLKTTQEAATRAEEQVGRLLQQTADLEAERRRLLDREAAMANTLVALRAECAFNPWSSLVGVKEAATTIESNGQLPSVREQAVAVTKAHIKPPGAVSASDVAMAFQGLDLDGQLPHMCVEPESVVDYYCKVKHSSPTRSLM”, for which the “soluble on expression in E. coli” value is on record as “soluble”.

Consider “MGSDKIHHHHHHMTAFNPIAIIPHYNHSATVGSVAEQLNQLGLPVLIVDDGSSLEHKAVIEQFPQNEQLSILFCEINGGKGAAFKAGLKQTQKLGFSHAIQVDADGQHNIIDVKKMLEQAEKSPNAIVCGKPIYGKDAPKSRLYGRKITDFWNAINTLSFDIKDGMCGFRIYPIAQIMPILAQEQIGGGMDFDTEILIHSYWQKIPLIWVDTPVKYEKDGISHFRGWADNWLISKMHARLFFRMLKRLFTGKIR”, for which the “soluble on expression in E. coli” value is “not soluble”.

With “MGSDKIHHHHHHMPIDLREFYQASDPSRTLFVNNSSDGKYYIDFSSVRGGDILGKLKQKITFFKPNEPTCTLFTGHIGCGKSTELLRLQAELEKLGFHVVYFESSDDLEMTDVDIADVLLAIARRVSQSLDKIILESPNKFNELLQGAWKVLNSEVTGVKVKVPNVGDFGVTSEKEKLSLSVGIGEITAKMKNDPTLREKLNQYLAPQKTKLLEAINQELLEPAIAKLKQQGKNGLVVIVDNLDRIDNRAKPWGRPQQEYLFVDQGEFLTKLNCHLIYTMPLSLKFSNDYGMLTQRFPEDPKVLPMVPVHWSDGSLHAQGMALMQQMVLARAFPDMTPEERLNKVTEIFDSAASLERLCQMSGGHVRDVLRLLNTWIMEEMSLPLTRDTLEQVIRSRQNEIMLPISEDEWQLLRHVKEKKKVSDDHGYQKLIRSRFVFEYRDCGESWFDVNPVLAEAKELQ”, the “soluble on expression in E. coli” value is given as “not soluble”.

Regarding “MAGDPMQQSDVISAAKKYMESIHQNDYTGHDIAHVYRVTALAKSIAENEGVNDTLVIELACLLHDTVDEKVVDANKQYVELKSFLSSLSLSTEDQEHILFIINNMSYRNGKNDHVTLSLEGQIVRDADRLDAIGAIGVARTFQFAGHFGEPMWTEHMSLDKINDDLVEQLPPSAIKHFFEKLLKLESLMHTDTAKMIAKERHDFMMMYLKQFFTEWNYHDLEHHHHHH”, the “soluble on expression in E. coli” value is “soluble”.

Take “MSLAMEHVDVLIVGAGLSGIGAAYHLQKHCPGKTYAILEGREAIGGTWDLFRYPGIRSDSDMYTLGYSFKPWKAAKAIADGPSILDYVRETAREHDIDRHIRFQHLVKRASWSSETATWTVEAEHDGKPVTLTCRFLHMCSGYYRYSAGYTPDFAGTERFKGRIVHPQHWPEDLDYSGKKVVVIGSGATAVTLVPEMAKTAAHVTMLQRSPTYVVSRPAEDGIANWLRSKLPAMTAYGITRWKNVLFQLFFFNLARKKPEKVKERLLGMVRDHLGPGYDVETHFTPRYNPWDQRLCLVPDADLFDAIKSGAASVVTDHIETFTETGIQLKSGKTLDADVIVTATGLQLQLLSGMEVVVDGKVADLSQSMSYKGMMFSDVPNLASVFGYTNASWTLKADLTSEYVCRLLNHMDRTGADYCVPRLDGEVEAAPWLDFSSGYITRSIGHFPKQGTRKPWKVHQNYALDLMTLRMGKVEDGVMQFGRKTGATAKAKPEKALEPAEGHHHHHH”: the “soluble on expression in E. coli” value is recorded as “soluble”.

Regarding “MFKSVAKCDKVEKMLLGTFNLTLDNKNRISLPAKLRSFFDSSIVINRGFENCLEIRKPADFESYFQTFNNFPNTQKDTRTLKRLIFANANLVELDSANRILIPNNLISDAKLDKEIVLIGQFDHLEVWDKVQYEQYLASSESLETVAERMKDAK”, the “soluble on expression in E. coli” value is reported as “soluble”.

With “SLAKYLELSMGFEEVAYRGLETNSRRLASHVVRNGNILFEIINTLESVAEHYPTVPMSKEEALSIKLDYSADEAHILKSLKEKIIKLTAEIVDENLDRYKYAMDIKAAKENLERSIINSTNFTAAISTIRKSINECVETSKKAIQDNFESFLIQEFVKIHGEGVMDISFNVLDVDSAFQKAIESGAYIIKLPQTMSDVHGSVKLATIAVPYTDIHHTLIQNKDYSGPFLPNYTKSIIEKPETYMHQLESLPPIRLDCIDHCVENYSWNQMMEHARFYANIFGFHKYWSVDEKDVFTGETALKSIVMASSNGKVKMPINEPAKGRKKSQIEEFYDFNGGPGVQHIALKTNDIIATVTSLRKRGIEFNPASQKYYDTLKQRLINDDIILKEDFNSIQNLNILVDYDPETRNNASKTCNYILQIFTKPLHDRPTLFIEIIQRRHHNGFGKGTFKGLFETIEAQQKLRGTLVSSDEG”, the “soluble on expression in E. coli” value is “not soluble”.

For the sequence “MEKQNLPVVVVGAGPVGLAAAAHLVERGIEPLVLEAGASAATAVRDWAHVRLFSPWAEVTDPAAEKLLAPTGWLRPDGATYPTGGDWAERYLQPLADVLGDQVRYGATVTGVARAGRDRIVDSGREEQPFTVHIETADGGEERIAARAVIDAGRRGVRHADRLEHHHHHH”, the “soluble on expression in E. coli” value is given as “soluble”.

As for “MGSDKIHHHHHHAELAELFEVSVRTIYRDIETINRAGIPIVTSQGSGGGIGIMETYRLEREWLKEEELFAIASALQSVSSMYEPVSHSTAYQKIKHLIPEQSTQAFKHQTEKWFIDMTAWGHTEDQKTLREKISAAIDRLLTISFTYTSASGETLLRETEPYTLVCKAGHWYLYAYCLVRNDFRFFKLNRMKDLAILHQTFIRKDIQLDTLPWDKSWYQKDRLTELVILVQPSARQRIGEWFGYDVLHCCEEDEICQAVISLPEDQWLIGFLLQFGKDIEVLQPLHIRDKVKETIHHMQKIYET”, the “soluble on expression in E. coli” value is recorded as “not soluble”.

As for “MEQQKKTTIVLFSGDYDKAMAAYIIANGAAAYDQEVTIFHTFWGLNALRKDEYVNVKKTFIEKVFGRMMPRGADKMGLSKMNFAGMGPKMIKGIMKKHNTMPLPDLIDLAKEQGIKLVACQMTVDLLGLKEEEIMEGVEFAGVGAYLADASDGNVNLFI”, the “soluble on expression in E. coli” value is recorded as “not soluble”.

“MNIFNPNHDRKAIVIFSGGQDSTTCLFQAIAEYGKENIEAITFQYGQRHAIELEKARTIAQDLGIKQTLIDTSVMKAITHNALMDEQAHIEQKENELPNTFVDGRNALFLLYAAIYAKGQGIQDIITGVCETDFSGYPDCRDVFIKSMNVTLNLAMDYPIPISKTPLMYLTKAQTWQLADEFRRIRLCTKTYSHLL”: the “soluble on expression in E. coli” value is “not soluble”.

For “MRMEAGEAAPPAGAGGRATGGWGKWVRLNVGGTVFLTTRQTLCREQKSFLSRLCQGEELQSDRDETGAYLIDRDPTYFGPILNFLRHGKLVLDKDMAEEGVLEEAEFYNIGPLIRIIKDRMEEKDYTVTQVPPKHVYRVLQCQEEELTQMVSTMSDGWRFEQLVNIGSSYNYGSEDQAEFLCVVSKELHSTPNGLSSESSRKTKSTEEQLEEQQQQEEEVEEVEVEQVQVEADAQEKGAANPQEDDC”, the “soluble on expression in E. coli” value was “soluble”.

Regarding “MSLSINIKAVTDDNRAAILDLHVSQNQLSYIESTKVCLEDAKECHYYKPVGLYYEGDLVGFAMYGLFPEYDEDNKNGRVWLDRFFIDERYQGKGLGKKMLKALIQHLAELYKCKRIYLSIFENNIHAIRLYQRFGFQFNGELDFNGEKVMVKELEGGSHHHHHH”, the “soluble on expression in E. coli” value is listed as “soluble”.

As to “MIEYAALKFNVVSDPMSETAKKVIVGMSGGVDSSVSAWLLQQQGYQVEGLFMKNWEEDDGEEYCTAAADLADAQAVCDKLGIELHTVNFAAEYWDNVFELFLAEYKAGRTPNPDILCNKEIKFKAFLEFAAEDLGADYIATGHYVRRADVDGKSRLLRGLDSNKDQSYFLYTLSHEQIAQSLFPVGELEKPQVRKIAEDLGLVTAKKKDSTGICFIGERKFREFLGRYLPAQPGKIITVDGDEIGEHQGLMYHTLGQRKGLGIGGTKEGTEEPWYVVDKDVENNILVVAQGHEHPRLMSVGLIAQQLHWVDREPFTGTMRCTVKTRYRQTDIPCTVKALDDDRIKVIFDEPVAAVTPGQSAVFYNGEVCLGGGIIEQRLPLPVLEHHHHHH”, the “soluble on expression in E. coli” value was “soluble”.

For “AIANSLVRRSAQQLSLWRTYCIKHNASEAASPGRNAGRPNYEEFIGRHQRQAQCSIVVQVSSEKSYEELYNYCSSFGSIMGAHHYCVRQDETLHYILLEYATSDEAAAAIGAGVTNGELSGVPVRSPFLWFRAAGGGRRSPKLVANTAPALLSLDGTRQVDQRHLLGLLRGAADIEEQVQQLYEHTRLNELGIRMRFLAALQVQQAIAGMFPAAQAQPFGSSVNGFGRMGCDLDLILRFDSDMGAKIPLEAAVPSRLVYHTKENLSNGRSQTQRHMECFGDMLHLFLPGVCHVRRILQARVPIIKYHHEHLDLEVDLSMSNLTGFYMSELLYMFGEMDPRVRPLTFTIRRWAQTCGLTNPSPGRWISNFSLTCLVMFFLQQLRQPILPTIGALAKAAEPGDSRVTEDGINCTFTRNVDRLGFRSRNQSSLSELLLQFFEFYSQFDFHNRAISLNEGKPLSKPDHSAMYIVNPLEQLLNVSKNVSLEECERLRIEVRNAAWVLESEVENASVPEGDGQELSCGLLNLFKHPEKAVIRPNMFFKPRMVEVSDLFEQKEAGATSSSTPPTPAITYKSASVRQQVQSIKAATRSELKQLRGSGSSVPTSSPNNRRRS”, the “soluble on expression in E. coli” value is “soluble”.

In the case of “MGSDKIHHHHHHMQNPAIGNVADTTASDFAELPATASHGPLRIEYRWVNAAAGNAPIAVFLHEGLGSVTMWRDWPQALCERLGMRGLVYSRPGYGLSTPRPHDVKWPADFMTAQARDILPALLDALCIDMRERRRMWVIGHSDGGSITLLYAALYPEELAGAVAIAPHVFVEDISVESIAQTRQLYETTDLRSKLGRYHADVDSAFYGWNDIWLNPAFRQWSIAGELTSIRKPLLAVQGHDDNYGTMAQIDTIAAHVPHAQLVKLDACGHSPHRDAPQPLNKAIAAFVLKDGVA”, the “soluble on expression in E. coli” value was “not soluble”.

Turning to “MGHHHHHHMRSYEKSKTAFKEAQKLMPGGVNSPVRAFKSVDMDPIFMERGKGSKIFDIDGNEYIDYVLSWGPLILGHTNDRVVESLKKVAEYGTSFGAPTEVENELAKLVIDRVPSVEIVRMVSSGTEATMSALRLARGYTGRNKILKFEGCYHGHGDSLLIKAGSGVATLGLPDSPGVPEGIAKNTITVPYNDLESVKLAFQQFGEDIAGVIVEPVAGNMGVVPPQEGFLQGLRDITEQYGSLLIFDEVMTGFRVDYNCAQGYFGVTPDLTCLGKVIGGGLPVGAYGGKAEIMEQIAPSGPIYQAGTLSGNPLAMTAGLETLKQLTPDSYKNFIKKGDRLEEGISKAAEAHGIPHTFNRAGSMIGFFFTNEPVINYETAKASDLKLFASYYKGMANEGVFLPPSQFEGLFLSTAHTDEDIENTIQAAEKVFAEISRR”, the “soluble on expression in E. coli” value is “soluble”.

(Values after the DeepSol protein solubility set.)
